# Source: patent US20160279215A1, “NOVEL PEPTIDES AND COMBINATION OF PEPTIDES FOR USE IN IMMUNOTHERAPY AGAINST VARIOUS TUMORS” (immatics biotechnologies GmbH, priority 2015, published 2016)
# Legend:
# HLA-A*02:01 [1] = target: T1, HLA-A*02:01 (Homo sapiens, UniProt P04439, D140Y/D185E/D98H/E176V/E277Q/G131W/G231S/I119V/I121R/I166T/I218V/L300P/L318F/N151K/N90K/P208A/P217A/Q86G/Q94H/R138H/R169H/T345S); test: MHC binding assay: UV-ligand exchange with β2m ELISA (peptide exchange yield); details: binding to HLA-A*02:01 evaluated by peptide exchange yield (UV-ligand exchange, β2m ELISA)
# T1 construct: made in house
# Summary of the method: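 Peptide–MHC complexes formed by UV-ligand exchange, cleaving a UV-sensitive peptide so the test peptide can bind. Exchange yield measured by ELISA: complexes captured on streptavidin-coated wells, diluted 100-fold, detected with HRP anti-β2m (1 h, 37 °C) and TMB at 450 nm, against refolded HLA-A*02:01/MLA-001 standards (15-500 ng/ml).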
# [2] = tested on: CD8+ T cells of healthy HLA-A*02 donors; test: In vitro immunogenicity: T-cell priming with aAPCs loaded with peptide/MHC and anti-CD28, pMHC multimer readout; assay type: cell-based, human; details: in vitro immunogenicity, HLA-A*02 restricted peptides; percentage of positive wells among evaluable
# From the text: In order to obtain information regarding the immunogenicity of the TUMAPs of the present invention, the inventors performed investigations using an in vitro T-cell priming assay based on repeated stimulations of CD8+ T cells with artificial antigen presenting cells (aAPCs) loaded with peptide/MHC complexes and anti-CD28 antibody.
# In order to perform in vitro stimulations by artificial antigen presenting cells loaded with peptide-MHC complex (pMHC) and anti-CD28 antibody, the inventors first isolated CD8+ T cells from fresh HLA-A*02 leukapheresis products via positive selection using CD8 microbeads (Miltenyi Biotec, Bergisch-Gladbach, Germany) of healthy donors obtained from the University clinics Mannheim, Germany, after informed consent. PBMCs and isolated CD8+ lymphocytes were incubated in T-cell medium (TCM) until use consisting of RPMI-Glutamax (Invitrogen, Karlsruhe, Germany) supplemented with 10% heat inactivated human AB serum (PAN-Biotech, Aidenbach, Germany), 100 U/ml Penicillin/100 μg/ml Streptomycin (Cambrex, Cologne, Germany), 1 mM sodium pyruvate (CC Pro, Oberdorla, Germany), 20 μg/ml Gentamycin (Cambrex). 2.5 ng/ml IL-7 (PromoCell, Heidelberg, Germany) and 10 U/ml IL-2 (Novartis Pharma, Nürnberg, Germany) were also added to the TCM at this step. Generation of pMHC/anti-CD28 coated beads, T-cell stimulations and readout was performed in a highly defined in vitro system using four different pMHC molecules per stimulation condition and 8 different pMHC molecules per readout condition.
# The purified co-stimulatory mouse IgG2a anti human CD28 Ab 9.3 (Jung et al., 1987) was chemically biotinylated using Sulfo-N-hydroxysuccinimidobiotin as recommended by the manufacturer (Perbio, Bonn, Germany). Beads used were 5.6 μm diameter streptavidin coated polystyrene particles (Bangs Laboratories, Illinois, USA).
# pMHC used for positive and negative control stimulations were A*0201/MLA-001 (peptide […] (SEQ ID NO. 289) from modified Melan-A/MART-1) and A*0201/DDX5-001 ([…] from DDX5, SEQ ID NO. 290), respectively.
# 800.000 beads/200 μl were coated in 96-well plates in the presence of 4×12.5 ng different biotin-pMHC, washed and 600 ng biotin anti-CD28 were added subsequently in a volume of 200 μl. Stimulations were initiated in 96-well plates by co-incubating […] CD8+ T cells with 2×10^5 washed coated beads in 200 μl TCM supplemented with 5 ng/ml IL-12 (PromoCell) for 3 days at 37° C. Half of the medium was then exchanged by fresh TCM supplemented with 80 U/ml IL-2 and incubating was continued for 4 days at 37° C. This stimulation cycle was performed for a total of three times. For the pMHC multimer readout using 8 different pMHC molecules per condition, a two-dimensional combinatorial coding approach was used as previously described (Andersen et al., 2012) with minor modifications encompassing coupling to 5 different fluorochromes. Finally, multimeric analyses were performed by staining the cells with Live/dead near IR dye (Invitrogen, Karlsruhe, Germany), CD8-FITC antibody clone SK1 (BD, Heidelberg, Germany) and fluorescent pMHC multimers. For analysis, a BD LSRII SORP cytometer equipped with appropriate lasers and filters was used. Peptide specific cells were calculated as percentage of total CD8+ cells. Evaluation of multimeric analysis was done using the FlowJo software (Tree Star, Oreg., USA). In vitro priming of specific multimer+ CD8+ lymphocytes was detected by comparing to negative control stimulations.
# Exemplary flow cytometry results after TUMAP-specific multimer staining for 15 peptides of the invention are shown in FIGS. 3 and 6 together with corresponding negative controls.
# HLA-A*02:01 [3] = target: T2, HLA-A*02:01 (human); test: UV ligand-exchange ELISA (anti-b2m); ++++ = exchange yield >=75%
# T2 construct: MHC monomers captured on streptavidin plates; the UV-sensitive peptide is cleaved and exchanged with the test peptide; also called peptide-receptive MHC molecules; MHC class I
# From the text: (§1) Candidate peptides for T cell based therapies according to the present invention were further tested for their MHC binding capacity (affinity). The individual peptide-MHC complexes were produced by UV-ligand exchange, where a UV-sensitive peptide is cleaved upon UV-irradiation, and exchanged with the peptide of interest as analyzed. Only peptide candidates that can effectively bind and stabilize the peptide-receptive MHC molecules prevent dissociation of the MHC complexes. To determine the yield of the exchange reaction, an ELISA was performed based on the detection of the light chain (β2m) of stabilized MHC complexes. The assay was performed as generally described in Rodenko et al. (Rodenko et al., 2006).
# (§2) 96 well MAXISorp plates (NUNC) were coated over night with 2 ug/ml streptavidin in PBS at room temperature, washed 4× and blocked for 1 h at 37° C. in 2% BSA containing blocking buffer. Refolded HLA-A*02:01/MLA-001 monomers served as standards, covering the range of 15-500 ng/ml. Peptide-MHC monomers of the UV-exchange reaction were diluted 100 fold in blocking buffer. Samples were incubated for 1 h at 37° C., washed four times, incubated with 2 ug/ml HRP conjugated anti-β2m for 1 h at 37° C., washed again and detected with TMB solution that is stopped with […]. Absorption was measured at 450 nm. Candidate peptides that show a high exchange yield (preferably higher than 50%, most preferred higher than 75%) are generally preferred for a generation and production of antibodies or fragments thereof, and/or T cell receptors or fragments thereof, as they show sufficient avidity to the MHC molecules and prevent dissociation of the MHC complexes.
# HLA-A*02:01 [4] = target: T2, HLA-A*02:01; test: UV ligand-exchange ELISA (anti-b2m); + = exchange yield >=10%
# From the text: as §1, §2
Peptide exchange (HLA-A*02:01 [1]),peptide exchange yield (HLA-A*02:01 [3]) [%],peptide exchange yield (HLA-A*02:01 [4]) [%],Molecule,Wells positive [%] [2]
+++ (≧50 = +++),,,233 (SLFESLEYL; listed as Homo sapiens) [compound 233],+ (<20% = +)
++ (≧20% = ++),,,117 (TLLEGISRA; listed as Homo sapiens) [compound 117],++ (20%-49% = ++)
++ (≧20% = ++),,,254 (ALGDKFLLRV; listed as Homo sapiens) [compound 254],+ (<20% = +)
+++ (≧50 = +++),,,4 (VLFGELPAL; listed as Homo sapiens) [compound 4],+ (<20% = +)
+++ (≧50 = +++),,,50 (ILLSVLHQL; listed as Homo sapiens) [compound 50],+ (<20% = +)
++++ (≧75% = ++++),,,92 (RLFEEVLGV; listed as Homo sapiens) [compound 92],++ (20%-49% = ++)
++ (≧20% = ++),,,157 (ILQDGQFLV; listed as Homo sapiens) [compound 157],+ (<20% = +)
+++ (≧50 = +++),,,246 (ALAGIVTNV; listed as Homo sapiens) [compound 246],+ (<20% = +)
+++ (≧50 = +++),,,251 (LLWGNLPEI; listed as Homo sapiens) [compound 251],++ (20%-49% = ++)
+++ (≧50 = +++),,,236 (KMSELQTYV; listed as Homo sapiens) [compound 236],+ (<20% = +)
+++ (≧50 = +++),,,255 (FLMKNSDLYGA; listed as Homo sapiens) [compound 255],+ (<20% = +)
+++ (≧50 = +++),,,89 (SLAETIFIV; listed as Homo sapiens) [compound 89],+ (<20% = +)
+++ (≧50 = +++),,,261 (GLAALAVHL; listed as Homo sapiens) [compound 261],++ (20%-49% = ++)
+++ (≧50 = +++),,,102 (GLYPVTLVGV; listed as Homo sapiens) [compound 102],+ (<20% = +)
++++ (≧75% = ++++),,,234 (VLLNEILEQV; listed as Homo sapiens) [compound 234],++ (20%-49% = ++)
,≥ 75,,FLNAIETAL,
,≥ 75,,KLQEKIQEL,
,≥ 75,,SLVSWQLLL,
,≥ 75,,GLDAFRIFL,
,,10 to 20,QTAPEEAFIKL,
,≥ 75,,RLFEEVLGV,
,,10 to 20,SEMEELPSV,
,,10 to 20,GPGIFPPPPPQP,
,≥ 75,,NLLDENVCL,
,≥ 75,,GLLDCPIFL,
,≥ 75,,VLLNEILEQV,
,,10 to 20,AQHLSTLLL,
,≥ 75,,GLLPSAESIKL,
,≥ 75,,FLLEREQLL,
